Experimental data as given in article PMC5862935, “YcfDRM is a thermophilic oxygen-dependent ribosomal protein uL16 oxygenase” (Extremophiles, 2018).

Experiments:
[1] = substrate: O=C(O)CCC(=O)C(=O)O; experiment: MALDI-MS peptide hydroxylation assay, steady-state kinetics; format: biochemical, Escherichia coli; conditions: co-substrates uL16 peptide fragment and O2; Fe(II), ascorbate; temperature and pH for this row not explicitly stated in main text
[2] = substrate: O=C(O)CCC(=O)C(=O)O; experiment: as above; format: biochemical, Rhodothermus marinus; conditions: co-substrates uL16RM peptide fragment and O2, Fe(II), ascorbate, 50 mM HEPES pH 7.5, 37 °C

B1: ycfDEC (Escherichia coli K-12) (protein)
chain: MEYQLTLNWPDFLERHWQKRPVVLKRGFNNFIDPISPDELAGLAMESEVDSRLVSHQDGKWQVSHGPFESYDHLGETNWSLLVQAVNHWHEPTAALMRPFRELPDWRIDDLMISFSVPGGGVGPHLDQYDVFIIQGTGRRRWRVGEKLQMKQHCPHPDLLQVDPFEAIIDEELEPGDILYIPPGFPHEGYALENAMNYSVGFRAPNTRELISGFADYVLQRELGGNYYSDPDVPPRAHPADVLPQEMDKLREMMLELINQPEHFKQWFGEFISQSRHELDIAPPEPPYQPDEIYDALKQGEVLVRLGGLRVLRIGDDVYANGEKIDSPHRPALDALASNIALTAENFGDALEDPSFLAMLAALVNSGYWFFEG
notes: purified E. coli YcfD; construct not described in main text
[1]
  Km: 8.6 ± 3.4 µM

B2: ycfDRM (Rhodothermus marinus DSM 4252) (protein)
chain: MQLPETILGGLAPEEFLANYWQKRPLLIRQALPGFRSPITPEELAGLACEEGVTARLILEKGGAYPWEVRYGPFEPEDFVALPPTHWTLLVQEVDRLVPEVAALLETVRFVPNWRLDDIMVSYAPEGGTVGAHIDNYDVFLVQAWGRRRWQINHRPVEREELVPGLEVRLLAHFEPDAEWILEPGDVLYLPPRIPHYGVALEDCMTFSIGFRAPDQAELAEAMPRMAAWLDGGRRYADPDLTPADEPGEITPEALDQIQALLRALIDDRERLARWFGCIITEPRRGLPPEPPGRPLSAKQLHRRLQQGATLRRNAIPELAYVRHADGSATLFASGEAYELSPELADVAPLLTGRRPLTAETLRPWLERDDFLELLQTLIHSGILSLIPARKR
notes: pET28a NdeI/SacI, expressed in E. coli BL21(DE3); HisTrap and Superdex 75 purified
[2]
  Km: 71.1 ± 12.2 µM
